According to patent publication US20250244325A1:

Tests used:
[1] = substrate: S clamp antigen from CSL451 GMP batch TC20-02-08 (sublot VS20200615A) (SARS-CoV-2) (UniProt P0DTC2); experiment: kinetics on CM5 chip: anti-mouse Ab, 30B8 captured, CSL451 Sclamp antigen in solution, 1:1 binding; density 7 RU, table row 7
[2] = substrate: S clamp antigen from CSL451 GMP batch TC20-02-08 (sublot VS20200615A) (SARS-CoV-2) (UniProt P0DTC2); experiment: kinetics on CM5 chip: anti-mouse Ab, 30B8 captured, CSL451 Sclamp antigen in solution, 1:1 binding; density 40 RU, table row 2
[3] = substrate: S clamp antigen from CSL451 GMP batch TC20-02-08 (sublot VS20200615A) (SARS-CoV-2) (UniProt P0DTC2); experiment: kinetics on CM5 chip: anti-mouse Ab, 30B8 captured, CSL451 Sclamp antigen in solution, 1:1 binding; density 40 RU, table row 1
[4] = substrate: S clamp antigen from CSL451 GMP batch TC20-02-08 (sublot VS20200615A) (SARS-CoV-2) (UniProt P0DTC2); experiment: kinetics on CM5 chip: anti-mouse Ab, 30B8 captured, CSL451 Sclamp antigen in solution, 1:1 binding; density 13 RU, table row 5
[5] = substrate: S clamp antigen from CSL451 GMP batch TC20-02-08 (sublot VS20200615A) (SARS-CoV-2) (UniProt P0DTC2); experiment: kinetics on CM5 chip: anti-mouse Ab, 30B8 captured, CSL451 Sclamp antigen in solution, 1:1 binding; density 7 RU, table row 8
[6] = substrate: S clamp antigen from CSL451 GMP batch TC20-02-08 (sublot VS20200615A) (SARS-CoV-2) (UniProt P0DTC2); experiment: binding kinetics from sensorgrams (FIG. 6); instrument and format not given
[7] = substrate: S clamp antigen from CSL451 GMP batch TC20-02-08 (sublot VS20200615A) (SARS-CoV-2) (UniProt P0DTC2); experiment: kinetics on CM5 chip: anti-mouse Ab, 30B8 captured, CSL451 Sclamp antigen in solution, 1:1 binding; density 20 RU, table row 4
[8] = substrate: S clamp antigen from CSL451 GMP batch TC20-02-08 (sublot VS20200615A) (SARS-CoV-2) (UniProt P0DTC2); experiment: kinetics on CM5 chip: anti-mouse Ab, 30B8 captured, CSL451 Sclamp antigen in solution, 1:1 binding; density 13 RU
[9] = substrate: S clamp antigen from CSL451 GMP batch TC20-02-08 (sublot VS20200615A) (SARS-CoV-2) (UniProt P0DTC2); experiment: kinetics on CM5 chip: anti-mouse Ab, 30B8 captured, CSL451 Sclamp antigen in solution, 1:1 binding; MEAN ± SEM of the eight runs
[10] = substrate: S clamp antigen from CSL451 GMP batch TC20-02-08 (sublot VS20200615A) (SARS-CoV-2) (UniProt P0DTC2); experiment: kinetics on CM5 chip: anti-mouse Ab, 30B8 captured, CSL451 Sclamp antigen in solution, 1:1 binding; density 20 RU, table row 3
[11] = substrate: S clamp antigen from CSL451 GMP batch TC20-02-08 (sublot VS20200615A) (SARS-CoV-2) (UniProt P0DTC2); experiment: homologous 30B8 capture/detection EIA; CSL451 DP held 1 h at room temperature (control), pre-treated with 0.125% Zwittergent 3 h at 37 C, antigen titrated

B1: antibody 30B8 (antibody, V domains shown)
VH: EVQLQQSGAELVKPGASVKLSCTASGFNIKDTYIHWVKQRPEQGLEWIGRIDPANGNTKYDPKFQGKATITADTSSNTAYLQLSSLTSEDTAVCYCAGSLYDYDGAPFAYWGQGTLVTVSA
VL: SIVMTQTPKFLLVSAGDRVTITCKASQSVTNDVTWYQQKPGQSPKLLIYYASNRYTGVPDRFTGSGYGTDFTFTISTVQAEDLAVYFCQQDYSSPWTFGGGTKLEIK
B1 showed a Kd [1] of 0.013 nM, a koff [1] of 3.11e-05 s⁻¹ and a kon [1] of 2.39e+06 M⁻¹ s⁻¹. It also gave a Kd [2] of 0.0138 nM, a koff [2] of 3.25e-05 s⁻¹ and a kon [2] of 2.35e+06 M⁻¹ s⁻¹. The Kd [3] was 0.0159 nM, the koff [3] was 3.76e-05 s⁻¹ and the kon [3] was 2.36e+06 M⁻¹ s⁻¹. It also gave a Kd [4] of 0.0171 nM, a koff [4] of 3.96e-05 s⁻¹ and a kon [4] of 2.31e+06 M⁻¹ s⁻¹. It also gave a Kd [5] of 0.0131 nM, a koff [5] of 3.06e-05 s⁻¹ and a kon [5] of 2.33e+06 M⁻¹ s⁻¹. It also gave a Kd [6] of 0.015 nM, a Kd [7] of 0.0152 nM and a koff [7] of 3.68e-05 s⁻¹. For the same binder, the kon [7] was 2.42e+06 M⁻¹ s⁻¹, the Kd [8] was 0.0171 nM and the koff [8] was 3.98e-05 s⁻¹. For the same binder, the kon [8] was 2.33e+06 M⁻¹ s⁻¹, the Kd [9] was 0.0151 nM and the Kd [10] was 0.0155 nM. For the same binder, the koff [10] was 3.66e-05 s⁻¹, the kon [10] was 2.37e+06 M⁻¹ s⁻¹ and the EC50 (read off the curve) [11] was 0.7 µg/mL.
